# From the supplement of paper PMC9112550, “Optimization of the antimicrobial peptide Bac7 by deep mutational scanning” (BMC Biology, 2022)
# Tested on: Escherichia coli TOP10
# Assay: shrunken log2 fold change of peptide-encoding DNA abundance (4.5 h post-induction vs induction); higher = less antimicrobial activity (less host growth inhibition)
# Conditions: time post-induction: 4.5 h; library: site-saturation at positions 5, 18, 19, 20
# 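Also: peptides expressed intracellularly from a pBAD plasmid library in pooled LB shake-flask culture, induced with 0.3% L-arabinose, DNA abundance read by NGS, three biological replicates, DESeq2 with apeglm shrinkage.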
row,Sequence,shrunken log2 fold change
1,RRIRARPPRLPRPRPRPAMIPRP,0.0684
2,RRIRERPPRLPRPRPRPCMYPRP,-0.201
3,RRIRMRPPRLPRPRPRPNIQPRP,-0.112
4,RRIRMRPPRLPRPRPRPADLPRP,0.752
5,RRIRYRPPRLPRPRPRPRGLPRP,-0.0424
6,RRIRSRPPRLPRPRPRPVIHPRP,-0.127
7,RRIRRRPPRLPRPRPRPQDWPRP,0.171
8,RRIRERPPRLPRPRPRPPFSPRP,-0.241
9,RRIRWRPPRLPRPRPRPSRDPRP,0.479
10,RRIRKRPPRLPRPRPRPAACPRP,0.987
11,RRIRPRPPRLPRPRPRPKLGPRP,0.551
12,RRIRQRPPRLPRPRPRPERWPRP,0.251
13,RRIRQRPPRLPRPRPRPWFGPRP,-0.352
14,RRIRQRPPRLPRPRPRPNCTPRP,-0.448
15,RRIRMRPPRLPRPRPRPNNLPRP,-0.259
16,RRIRLRPPRLPRPRPRPEPHPRP,0.324
17,RRIRNRPPRLPRPRPRPYIKPRP,-1.03
18,RRIRKRPPRLPRPRPRPFNFPRP,-0.296
19,RRIRPRPPRLPRPRPRPSSPPRP,-0.406
20,RRIRGRPPRLPRPRPRPIGKPRP,0.035
21,RRIRLRPPRLPRPRPRPWHPPRP,-0.0174
22,RRIRKRPPRLPRPRPRPDDCPRP,0.149
23,RRIRWRPPRLPRPRPRPIYKPRP,-0.596
24,RRIRKRPPRLPRPRPRPASEPRP,0.879
25,RRIRQRPPRLPRPRPRPTWDPRP,0.0355

row,Sequence,shrunken log2 fold change
1,RRIRNRPPRLPRPRPRPAWPPRP,0.408
2,RRIRDRPPRLPRPRPRPRGLPRP,0.825
3,RRIRFRPPRLPRPRPRPQTCPRP,-0.31
4,RRIRFRPPRLPRPRPRPHWTPRP,-0.301
5,RRIRARPPRLPRPRPRPEYVPRP,0.0744
6,RRIRERPPRLPRPRPRPMPQPRP,-0.201
7,RRIRDRPPRLPRPRPRPPWHPRP,0.148
8,RRIRARPPRLPRPRPRPSFQPRP,-0.0185
9,RRIRERPPRLPRPRPRPTTCPRP,0.0164
10,RRIRHRPPRLPRPRPRPANPPRP,0.0212
11,RRIRARPPRLPRPRPRPITNPRP,-0.54
12,RRIRWRPPRLPRPRPRPWLYPRP,-0.128
13,RRIRERPPRLPRPRPRPMRFPRP,-0.0231
14,RRIRFRPPRLPRPRPRPSPIPRP,-0.13
15,RRIRKRPPRLPRPRPRPQAYPRP,-0.216
16,RRIRCRPPRLPRPRPRPRVLPRP,3.12
17,RRIRQRPPRLPRPRPRPWTQPRP,0.0496
18,RRIRSRPPRLPRPRPRPWYDPRP,-0.511
19,RRIRLRPPRLPRPRPRPNCMPRP,-0.415
20,RRIRGRPPRLPRPRPRPHISPRP,-0.0962
21,RRIRNRPPRLPRPRPRPASSPRP,-0.317
22,RRIRCRPPRLPRPRPRPGYSPRP,-0.483
23,RRIRYRPPRLPRPRPRPTCMPRP,-0.156
24,RRIRCRPPRLPRPRPRPLFAPRP,0.0307
25,RRIRCRPPRLPRPRPRPSSMPRP,-0.859

row,Sequence,shrunken log2 fold change
1,RRIRWRPPRLPRPRPRPPYCPRP,-0.0779
2,RRIRPRPPRLPRPRPRPRKSPRP,0.112
3,RRIRQRPPRLPRPRPRPWWVPRP,-0.0321
4,RRIRTRPPRLPRPRPRPRASPRP,0.367
5,RRIRSRPPRLPRPRPRPIIRPRP,-1.09
6,RRIRDRPPRLPRPRPRPKQPPRP,-0.0112
7,RRIRQRPPRLPRPRPRPTCSPRP,-0.353
8,RRIRDRPPRLPRPRPRPSHRPRP,0.102
9,RRIRIRPPRLPRPRPRPNKDPRP,-0.818
10,RRIRDRPPRLPRPRPRPENMPRP,0.0225
11,RRIRDRPPRLPRPRPRPTSDPRP,0.347
12,RRIRRRPPRLPRPRPRPWNIPRP,-0.0317
13,RRIRMRPPRLPRPRPRPYVSPRP,0.013
14,RRIRDRPPRLPRPRPRPTSKPRP,0.168
15,RRIRLRPPRLPRPRPRPMTIPRP,0.0154
16,RRIRNRPPRLPRPRPRPNNGPRP,-0.0309
17,RRIRLRPPRLPRPRPRPDAMPRP,0.224
18,RRIRSRPPRLPRPRPRPLFGPRP,0.157
19,RRIRGRPPRLPRPRPRPYHAPRP,0.142
20,RRIRIRPPRLPRPRPRPFDPPRP,-0.438
21,RRIRYRPPRLPRPRPRPSYPPRP,-0.217
22,RRIRIRPPRLPRPRPRPTEQPRP,-0.348
23,RRIRWRPPRLPRPRPRPRDRPRP,0.909
24,RRIRNRPPRLPRPRPRPQGLPRP,-0.109
25,RRIRRRPPRLPRPRPRPIMMPRP,-0.00819
